The text below walks through data of patent publication US20160264674A1 (ADURO BIOTECH HOLDINGS EUROPE B V, published 2016).

Test [1] has as its target T1, FLAG-tagged human APRIL (human, UniProt O75888 105-250, limits assumed).
T1 construct: also called FLAG-tagged APRIL; FLAG-APRIL; not shown: FLAG tag
T1 sequence (looked up): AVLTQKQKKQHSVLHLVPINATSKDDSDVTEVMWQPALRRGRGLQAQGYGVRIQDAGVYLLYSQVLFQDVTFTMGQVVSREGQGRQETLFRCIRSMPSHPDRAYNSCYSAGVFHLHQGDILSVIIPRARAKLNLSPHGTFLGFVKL
Briefly: FLAG-APRIL ELISA after 10 min at 65 °C, antibody at 1 µg/ml. The method, then: (§1) The plasmids encoding the VH and VL constructs were mixed in a 1:3 ratio (4 μg in total) and transiently expressed by transfection into HEK293T human embryonic kidney cells (HEK293T/17, ATCC-CRL-11268), using Lipofectamine 2000 transfection reagent (Invitrogen) following the manufacturer's instructions. Cell supernatants were harvested after 5 days and tested for expression of antibody and binding to APRIL using an enzyme-linked immuno assay (ELISA). In these ELISAs, all incubation steps were followed by a wash step with PBST (PBS with 0.01% Tween 20). Maxisorb 96-wells plates (Nunc) were coated with 0.5 μg/ml anti-FLAG (Sigma) or anti-IgG4 (Jackson laboratories) and incubated overnight at 4° C. Subsequently the anti-FLAG coated 96-wells plates were incubated with FLAG-tagged human APRIL for 1 hour at room temperature. Next, supernatants and dilutions thereof were incubated for 1 hour, which was followed by an incubation of 1 hour with mouse anti-human IgG HRP-conjugate (Southern Biotechnology).
(§2) To determine the effect of humanization on the stability of the antibodies, humanized antibodies were exposed to a range of temperatures for 10 minutes. Purified antibodies were diluted to 3.16 μg/ml and dilutions thereof in PBS. Next, these solutions were exposed to 65° C. or 70° C. and residual binding after heat treatment of the antibodies was measured using the FLAG-tagged APRIL ELISA assay as described before (see Table 6).
(§3) In addition, the stability of the substituted humanized antibodies was improved as determined using thermostability studies as described in Example 3 (see Table 9).
A general note: In an ELISA, binding on a coated surface is turned into a signal by an enzyme label.

Test [2] concerns the target T1, FLAG-tagged human APRIL. Briefly: FLAG-APRIL ELISA after 10 min at 70 °C, antibody at 1 µg/ml.
Test [3] addresses T1, FLAG-tagged human APRIL. Briefly: FLAG-APRIL ELISA after 10 min at 65 °C, antibody at 3.16 µg/ml. The method, then: as §1, §2, §3
For test [4], the target named is T1, FLAG-tagged human APRIL. Description: FLAG-APRIL ELISA after 10 min at 70 °C, antibody at 3.16 µg/ml.
Test [5] concerns the target T1, FLAG-tagged human APRIL. Description: FLAG-APRIL ELISA after 10 min at 65 °C, antibody at 0.316 µg/ml. As for the experimental part: as §1, §2, §3
In test [6] the target is T1, FLAG-tagged human APRIL. Description: FLAG-APRIL ELISA after 10 min at 70 °C, antibody at 0.316 µg/ml.
Test [7] deals with T1, FLAG-tagged human APRIL. Description: ELISA: FLAG-tagged human APRIL captured on anti-FLAG plate, purified antibody titrated.
Test [8] concerns the target T1, FLAG-tagged human APRIL. Briefly: competition ELISA: antibody premixed with FLAG-tagged APRIL, added to coated Fc-BCMA, anti-FLAG HRP. As for the experimental part: A subset of humanized antibodies described above was selected for further analyses. Again, plasmids encoding the VH and VL constructs were mixed in a 1:3 ratio (32 μg) and transiently expressed by transfection into (8*10⁶) HEK293T human embryonic kidney cells (HEK293T), using Lipofectamine 2000 transfection reagent (Invitrogen) according to the manufacturer's instructions. Supernatants were harvested (10 ml) and antibodies were purified using MabSelect Sure Protein A resin according to the manufacturer's instructions (GE Healthcare). Buffer was exchanged for PBS using Zeba desalting columns (Thermo Scientific). The concentration of purified antibodies was determined based on OD280 (Nanodrop ND-1000). The binding of the purified antibodies to APRIL was established using the above described APRIL ELISA. The blocking capability of the humanized antibodies with BCMA and TACI receptors, was tested in a competition ELISA. In these ELISAs, all incubation steps were followed by a wash step with PBST (PBS with 0.01% Tween 20). Maxisorb 96-wells plates (Nunc) were coated with 0.5 μg/ml Fc-BCMA (R&D Systems) or Fc-TACI (R&D Systems) and incubated overnight at 4° C. Next, humanized antibodies and dilutions thereof were incubated, premixed with FLAG-tagged APRIL, for 1 hour, which was followed by an incubation of 1 hour with anti-FLAG HRP-conjugate (Sigma). Immunoreactivity was visualized with 100 μl TMB Stabilized Chromagen (Invitrogen). Reactions were stopped with 100 μl 0.5 M H2504 and absorbances were measured at 450 and 620 nm. Calculated EC₅₀ and IC₅₀ representing the concentration at which 50% of the total binding signal or blocking is observed are represented in Table 5.
The antibodies were tested for binding, blockade, and stability as described before.

The target in test [9] is T1, FLAG-tagged human APRIL. Briefly: ELISA on FLAG-tagged human APRIL captured by anti-FLAG. The method, then: as §1
Immunoreactivity was visualized with 100 μl TMB Stabilized Chromagen (Invitrogen). Reactions were stopped with 100 μl 0.5 M H2504 and absorbances were measured at 450 and 620 nm.

B1: VH14_1C.VL15 (antibody, human IgG4, V domains shown)
VH: QVQLVQSGAEVKKPGASVKVSCKASGYTFTSYVMHWVRQAPGQGLEWMGYINPYNDAPKYNEKFKGRVTITSDTSASTAYMELSSLRSDDTAVYYCARGLGYALYYAMDYWGQGTTVTVSS
VL: DIVMTQSPSTLSASVGDRVTITCKASQNVGNNVAWYQQKPGKAPKLLISSASNRDSGVPSRFSGSGSGTEFTLTISSLQPDDFATYFCQQYNIYPFTFGQGTKLEIK
notes: VH14_1 with M70I; Rest is human IgG4 (S241P, Kabat) and human kappa; also called 14_1C.15
The EC50 is the concentration needed to bring the measured effect to its halfway point. What is called IC50 is the concentration at which inhibition is half-maximal. A higher IC50 goes with a need for much substance. For the molecule B1, the “% residual binding after heat treatment (room temperature = 100%)” value in test [1] came out at 44.7%; in test [2], 43.8%; in [3], 86.3%; in test [4], 99.4%; in test [5] it was 59.1%; in test [6], 59.1%. In test [7], a half-maximal effect (EC50) was put at 7.04 nM. Moreover, the IC50 in test [8] turned out to be 5.26 nM.

B2: VH14.VL11 (combination of VH14 with VL11) (antibody, human IgG4, V domains shown)
VH: QVQLVQSGAEVKKPGASVKVSCKASGYTFTSYVMHWVRQAPGQGLEWMGYINPYNDAPKYNEKFKGRVTMTRDTSASTAYMELSSLRSDDTAVYYCARGLGYALYYAMDYWGQGTTVTVSS
VL: DIVMTQSQKFMPTSVGDRVSVTCKASQNVGNNVAWYQQKPGQSPKALIYSASNRDSGVPDRFTGSGSGTDFTLTITNVQSEDLAEYFCQQYNIYPFTFGAGTKLELK
notes: Human IgG4 (S241P) / human kappa; Member of the group 'combinations of VH11-VH14 with VL10-VL14'
For B2, the binding result in test [9] is listed as “no binding”.

B3: VH14_1D.VL15 (antibody, human IgG4, V domains shown)
VH: QVQLVQSGAEVKKPGASVKVSCKASGYTFTSYVMHWVRQAPGQGLEWMGYINPYNDAPKYNEKFKGRVTMTSDKSASTAYMELSSLRSDDTAVYYCARGLGYALYYAMDYWGQGTTVTVSS
VL: DIVMTQSPSTLSASVGDRVTITCKASQNVGNNVAWYQQKPGKAPKLLISSASNRDSGVPSRFSGSGSGTEFTLTISSLQPDDFATYFCQQYNIYPFTFGQGTKLEIK
notes: VH14_1 with T74K; Rest is human IgG4 (S241P, Kabat) and human kappa; also called 14_1D.15
B3: the “% residual binding after heat treatment (room temperature = 100%)” value in [1] is 39.8%; in [2], 32.7%; in [3], 75.3%; in [4], 84.3%; in test [5], 49.4%; in test [6], 45.6%. This molecule returned an EC50 in test [7] of 1.95 nM. Further, the IC50 in test [8] stood at 0.96 nM.

B4: VH11.VL14 (combination of VH11 with VL14) (antibody, human IgG4, V domains shown)
VH: QVQLVQSGAEVKKPGASVKVSCKASGYTFTSYVMHWVRQAPGQRLEWMGYINPYNDAPKYNEKFKGRVTITRDTSASTAYMELSSLRSEDTAVYYCARGLGYALYYAMDYWGQGTTVTVSS
VL: DILMTQSQKIMPTSVGDRVSVTCKASQNVGNNVAWYQQKPGQSPKALIYSASNRDSGVPDRFTGSGSGTDFTLTITNVQSEDLAEYFCQQYNIYPFTFGAGTKLDLK
notes: as for B2
For the molecule B4, the binding result in [9] is “no binding”.

B5: VH11.VL11 (combination of VH11 with VL11) (antibody, human IgG4, V domains shown)
VH: QVQLVQSGAEVKKPGASVKVSCKASGYTFTSYVMHWVRQAPGQRLEWMGYINPYNDAPKYNEKFKGRVTITRDTSASTAYMELSSLRSEDTAVYYCARGLGYALYYAMDYWGQGTTVTVSS
VL: DIVMTQSQKFMPTSVGDRVSVTCKASQNVGNNVAWYQQKPGQSPKALIYSASNRDSGVPDRFTGSGSGTDFTLTITNVQSEDLAEYFCQQYNIYPFTFGAGTKLELK
notes: as for B2
Regarding B5, the binding result in test [9] is reported as “no binding”.

B6: VH14.VL14 (combination of VH14 with VL14) (antibody, human IgG4, V domains shown)
VH: QVQLVQSGAEVKKPGASVKVSCKASGYTFTSYVMHWVRQAPGQGLEWMGYINPYNDAPKYNEKFKGRVTMTRDTSASTAYMELSSLRSDDTAVYYCARGLGYALYYAMDYWGQGTTVTVSS
VL: DILMTQSQKIMPTSVGDRVSVTCKASQNVGNNVAWYQQKPGQSPKALIYSASNRDSGVPDRFTGSGSGTDFTLTITNVQSEDLAEYFCQQYNIYPFTFGAGTKLDLK
notes: as for B2
For B6, the binding result in [9] was “no binding”.

B7: VH12.VL14 (combination of VH12 with VL14) (antibody, human IgG4, V domains shown)
VH: QVQLVQSGAEVKKPGASVKVSCKASGYTFTSYVMHWVRQAPGQGLEWMGYINPYNDAPKYNEKFKGRVTMTRDTSISTAYMELSRLRSDDTAVYYCARGLGYALYYAMDYWGQGTTVTVSS
VL: DILMTQSQKIMPTSVGDRVSVTCKASQNVGNNVAWYQQKPGQSPKALIYSASNRDSGVPDRFTGSGSGTDFTLTITNVQSEDLAEYFCQQYNIYPFTFGAGTKLDLK
notes: as for B2
With B7, the binding result in test [9] is recorded as “no binding”.

B8: VH12.VL11 (combination of VH12 with VL11) (antibody, human IgG4, V domains shown)
VH: QVQLVQSGAEVKKPGASVKVSCKASGYTFTSYVMHWVRQAPGQGLEWMGYINPYNDAPKYNEKFKGRVTMTRDTSISTAYMELSRLRSDDTAVYYCARGLGYALYYAMDYWGQGTTVTVSS
VL: DIVMTQSQKFMPTSVGDRVSVTCKASQNVGNNVAWYQQKPGQSPKALIYSASNRDSGVPDRFTGSGSGTDFTLTITNVQSEDLAEYFCQQYNIYPFTFGAGTKLELK
notes: as for B2
Take B8: in test [9], the binding result is on record as “no binding”.

B9: VH13.VL14 (combination of VH13 with VL14) (antibody, human IgG4, V domains shown)
VH: QVQLVQSGAEVKKPGASVKVSCKASGYTFTSYVMHWVRQAPGQGLEWMGYINPYNDAPKYNEKFKGRVTMTRDTSTSTVYMELSSLRSEDTAVYYCARGLGYALYYAMDYWGQGTMVTVSS
VL: DILMTQSQKIMPTSVGDRVSVTCKASQNVGNNVAWYQQKPGQSPKALIYSASNRDSGVPDRFTGSGSGTDFTLTITNVQSEDLAEYFCQQYNIYPFTFGAGTKLDLK
notes: as for B2
With B9, in test [9], the binding result is reported as “no binding”.

B10: VH13.VL11 (combination of VH13 with VL11) (antibody, human IgG4, V domains shown)
VH: QVQLVQSGAEVKKPGASVKVSCKASGYTFTSYVMHWVRQAPGQGLEWMGYINPYNDAPKYNEKFKGRVTMTRDTSTSTVYMELSSLRSEDTAVYYCARGLGYALYYAMDYWGQGTMVTVSS
VL: DIVMTQSQKFMPTSVGDRVSVTCKASQNVGNNVAWYQQKPGQSPKALIYSASNRDSGVPDRFTGSGSGTDFTLTITNVQSEDLAEYFCQQYNIYPFTFGAGTKLELK
notes: as for B2
For the molecule B10, the binding result in test [9] is reported as “no binding”.
